The target of the assay is T1, human chemokine receptor CCR9 (human, UniProt P51686 1-369, N-glycosylated at Asn32 on cells (removed by PNGase F in some Western blots); the letters do not carry this).
T1 construct: On stably transfected HEK293 cells, endogenous on MOLT-4 cells, thymocytes and blood lymphocytes; also as membrane extracts in Western blots (with or without PNGase F); also called hCCR9; human CCR9
T1 sequence: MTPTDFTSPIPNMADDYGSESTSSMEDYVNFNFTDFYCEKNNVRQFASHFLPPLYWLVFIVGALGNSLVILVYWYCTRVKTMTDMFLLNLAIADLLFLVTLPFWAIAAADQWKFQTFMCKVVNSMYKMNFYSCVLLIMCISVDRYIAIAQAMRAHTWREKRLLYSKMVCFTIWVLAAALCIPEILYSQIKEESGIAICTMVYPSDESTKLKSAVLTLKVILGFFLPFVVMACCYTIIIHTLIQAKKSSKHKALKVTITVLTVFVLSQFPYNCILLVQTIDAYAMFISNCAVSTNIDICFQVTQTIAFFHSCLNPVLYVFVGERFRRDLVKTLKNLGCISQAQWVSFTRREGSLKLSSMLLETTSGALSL
Put plainly: flow cytometry on MOLT-4 cells, hCCL25 10 µg/ml before 91R (0.5 µg/ml). As to the method:
To study whether CCL25 affects CCR9 recognition by 91R, MOLT-4 cells were preincubated alone or with hCCL25, in the presence of sodium azide to inhibit receptor internalization (40 min, 4° C.), followed by incubation with 91R and flow cytometry analysis.
For orientation: Flow cytometry measures light scatter and fluorescence of single cells or particles in a stream.

The values below come from patent US20160257756A1 (CONSEJO SUPERIOR DE INVESTIGACIONES CIENTIFICAS C S I C, published 2016).

B1: recombinant human CCL25 (ligand, UniProt O15444 24-150, looked up)
chain: QGVFEDCCLAYHYPIGWAVLRRAWTYRIQEVSGSCNLPAAIFYLPKRHRKVCGNPKSREVQRAMKLLDARNKVFAKLHHNTQTFQAGPHAVKKLSSGNSKLSSSKFSNPISSSKRNVSLLISANSGL
notes: Bought (Peprotech); also called hCCL25; TECK
With B1, the binding result is listed as “binds”.
